Legend:
Experiment in all cases: pull-down binding Z-score (relative to library population); higher = stronger binding
[1] = system: TO-3-N3-2 (biotin conjugate); details: RNA library: Library-2
Method in brief: (§1)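 The RNA library, end-labelled with Cy5 or Cy3, was heat-folded in phosphate/NaCl/KCl buffer, and 1 μg was incubated at 25 °C for 60 min with streptavidin beads carrying 100 pmol of biotin-conjugated small molecule. Hot SDS released the bound RNA, which was then hybridised to a DNA barcode microarray for 20 h at 55.5 °C. For scoring binding, signal from beads alone was subtracted, replicate barcoded probes were averaged after discarding the highest and lowest, and each value was turned into a Z-score from the library mean and standard deviation.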

TO-N3 (biotin conjugate) = details: RNA library: Library-2
Method in brief: as §1

[2] = system: TO-N3-2 (biotin conjugate); details: RNA library: Library-2
Method in brief: as §1

[3] = system: TO-3-N3 (biotin conjugate); details: RNA library: Library-2
Method in brief: as §1

[4] = system: G-clamp-N3 (biotin conjugate); details: RNA library: Library-1 (pre-miRNA loops + repeats)
Method in brief: as §1

Sequence	pull-down binding Z-score [1]	pull-down binding Z-score (TO-N3 (biotin conjugate))	pull-down binding Z-score [2]	pull-down binding Z-score [3]	pull-down binding Z-score [4]
AGAGGCUGUGGGCAGGGGGAGAUGUGAAGGAAAGAACUAGGACCCAUUCAUCCACU [hsa-mir-6807]	2.57	2.97	2.79	2.51	0.739
AGAGUCCUGUUGUUGUAAGAUAGUGUCU [hsa-mir-550a-3]	-0.265	-0.515	-0.0681	-0.56	0.441
AGAUAGUGAAGUAGAUUAGCAUCUACU [hsa-mir-18a]	0.201	-0.387	0.0251	-0.484	-0.59
AGAUAUAUAUAUACCUCAUAUGUAUAUGGUAUAC [hsa-mir-4777]	-0.53	-1.37	-0.944	-1.2	-1.5
AGAUCACUUUUCUGCACUGGACAGUGAUCU [hsa-mir-3686]	-0.462	-0.904	-0.833	-0.65	-0.182
AGAUCCCCUGUUAGAGACGGGCC [hsa-mir-6840]	0.351	0.562	0.991	0.114	-1.25
AGAUCCUGUCUUUCGUAAUCAGCAGCU [hsa-mir-222]	0.00116	0.344	0.228	0.279	-0.246
AGAUCUAUGUCAUAUAUACAGAUAU [hsa-mir-3924]	0.268	0.742	-0.356	0.902	-0.51
AGAUCUGUCUCUGAUUGUUUCCAAGAUCU [hsa-mir-6888]	0.0544	0.136	0.0817	0.132	-0.781
AGAUGAAAUGCCUUUGAUUU [hsa-mir-3658]	-0.388	-0.715	-0.505	-0.497	-1.49
AGAUGAGGGUGUCGGAUCAACU [hsa-mir-193a]	0.248	0.579	0.801	0.135	1.51
AGAUGAGUUUAUGUUUUAUCCAACU [hsa-mir-193b]	-0.228	-0.416	-0.135	-0.608	-1.8
AGAUGUGUUUCCAUUCCACUAUCAUAAU [hsa-mir-365a]	-0.128	-0.0846	-0.292	-0.141	-0.718
AGCAAGGUGCGUCGUAUCUUGCU [hsa-mir-4804]	-0.581	-0.702	-0.798	-0.499	0.816
AGCACUUUCUGUUGUCUGAAAGAAAAGAAAGUGCU [hsa-mir-516a-1_516a-2]	0.0524	0.686	-0.0183	0.399	1.47
AGCACUUUCUGUUUUGUGAAAGAAAAGAAAGUGCU [hsa-mir-516b-1]	-0.64	-1.32	-1.2	-0.893	-0.472
AGCACUUUGUGUUUUGUGAAAGAAAGUGCU [hsa-mir-516b-2]	-0.0767	-0.882	-0.576	-0.647	2.82
AGCAGUACCAGACGGUUCUGUGG [hsa-mir-3198-1]	-0.0913	0.0664	0.525	-0.321	-0.487
AGCAGUACCAGAUGGUUCUGUGG [hsa-mir-3198-2]	-0.262	-0.0604	-0.167	-0.0816	-1.54

Sequence	pull-down binding Z-score [1]	pull-down binding Z-score (TO-N3 (biotin conjugate))	pull-down binding Z-score [2]	pull-down binding Z-score [3]	pull-down binding Z-score [4]
AGCAUCUGAAUGGGUACAGUUGUUGU [hsa-mir-6818]	-0.0469	0.0834	-0.225	0.0263	-0.405
AGCAUGCACUUAAUGUGGGUGUAUGU [hsa-mir-668]	-0.205	0.184	-0.105	0.334	0.305
AGCCAAAAUCACCAGGGA [hsa-mir-4534]	0.118	0.259	0.563	-0.0499	0.0802
AGCCACUGCGGUCGACCAUGACCUGGA [hsa-mir-619]	0.0618	0.578	0.721	0.401	-0.783
AGCCCUGGGCUCCUCAGCAAACCUACUGGAU [hsa-mir-3174]	0.3	0.857	0.975	0.494	-1.41
AGCCCUGUUGUUGUAAGAUAGUGU [hsa-mir-550a-1]	-0.124	-0.00359	0.346	-0.325	-0.249
AGCCCUGUUGUUGUCAGAUAGUGU [hsa-mir-550a-2]	0.21	0.216	0.179	0.198	-0.331
AGCCUCCAAACCUGUAGACAGGGUCAUGCAGUACUAGGGGCGAG [hsa-mir-4478]	0.175	0.546	0.966	-0.0187	-0.233
AGCCUUCUAUUAUGCCCAGACAGGGCCACCAGAGGGCU [hsa-mir-4448]	-0.619	-0.746	-0.254	-0.471	-0.731
AGCGCGAAAGU [hsa-mir-1539]	0.0743	0.054	0.55	-0.0926	0.0302
AGCGCGGCGACCGUAACUCCU [hsa-mir-1237]	0.313	0.724	1.65	0.152	-0.629
AGCUGGCUGAAGGGCAGAAGGGAACUGUCCUUCAGCCAGAG [hsa-mir-4487]	-0.156	-0.243	-0.122	-0.276	-0.139
AGCUGGGGCCGGGU [hsa-mir-4281]	0.821	1.63	1.27	1.37	0.118
AGCUGGGUGGAGGCAGAGCU [hsa-mir-4291]	1.23	2.34	1.4	2.46	1.95
AGCUGUGAAAGUCCUAGCU [hsa-mir-1256]	0.221	2.17	3.94	0.994	0.661
AGCUGUGUUUUCUGACUCAGUCAUAAU [hsa-mir-365b]	-0.263	-0.26	-0.505	-0.26	-0.674
AGCUGUUGAACUGGGAACCUGCU [hsa-mir-31]	-0.00735	0.368	0.794	-0.162	0.781
AGCUGUUGGCCAUGGCGACAACACCU [hsa-mir-6742]	-0.322	-0.246	0.561	-0.508	0.213
